Assay results: patent publication US6566083B1, “Method of detecting biologically active substances” (Novo Nordisk A/S, priority 1995, dated 2003)

Legend:
[1] = target: T1, catalytic subunit of the cAMP dependent protein kinase (Bos taurus, UniProt P00517); test: In vitro GFP phosphorylation assay; type: biochemical; settings: 0.5 μg GFP, 10 casein units kinase, 0.2 mM ATP, 5 minutes at 37° C., excitation 395 nm (FIG. 3)
T1 construct: purchased Promega
Method: For in vitro phosphorylation of GFP, 0.5 μg wild-type GFP (purified as described above) in 40 mM Tris, pH 7.4, 20 mM MgOAc and 0.2 mM ATP (all from Sigma, St. Louis, Mo., USA) was incubated for 1-60 minutes at 37° C. with 0-20 casein units of the catalytic subunit of the cAMP dependent protein kinase (Promega, Madison, Wis. USA) and 0-200 μM cAMP dependent protein kinase inhibitor. Emission (excitation wavelength 395 nm or 470 nm) and excitation (emission wavelength 508 nm) spectra were acquired for all samples using the LS50B Luminescence Spectrometer and the FL data Manager software package (Perkin Elmer). The spectra were subsequently compared by using the Graph Builder software package (Perkin Elmer).
The control (w/o PKA) was incubated 5 minutes at 37° C. without the catalytic subunit of the cAMP dependent protein kinase. The excitation wavelength was 395 nm. RFI in the figure means relative fluorescence intensity.

[2] = target: wild-type green fluorescent protein (GFP) derived from the jellyfish Aequorea victoria (Aequorea victoria) [GFP: P42212]; test: cell-based or functional assay

Row | increase of fluorescence intensity when incubated with the catalytic subunit of the cAMP dependent protein kinase [1] | fluorescence intensity of wild-type GFP (emission spectra, excitation 395 nm) after in vitro phosphorylation [2] [fold] | Substance
1 | approximately two-fold | – | wild-type GFP: wild-type green fluorescent protein derived from the jellyfish Aequorea victoria, SEQ ID NO: 32, purified from E. coli
2 | – | 2 | catalytic subunit of the cAMP dependent protein kinase (Promega) (enzyme)
